Source: US9023351

B1: MOR06631 IgG (antibody, V domains shown)
VH: QVQLVQSGAEVKKPGESLKISCKGSGYSFTNYWIGWVRQMPGKGLEWMGFIWPVDSWTQYSPSFQGQVTISADKSISTAYLQWSSLKASDTAMYYCARYGHGMYGGALDVWGQGTLVTVSS
VL: DIVLTQSPATLSLSPGERATLSCRASQSVRSSRLAWYQQKPGQAPRLLIYGASKRATGVPARFSGSGSGTDFTLTISSLEPEDFATYYCQQYYDFPPTFGQGTKVEIK
B2: MOR07265 IgG (antibody, V domains shown)
VH: QVQLVQSGAEVKKPGESLKISCKGSGYSFTNYWIGWVRQMPGKGLEWMGFIWPVDSWTQYSPSFQGQVTISADKSISTAYLQWSSLKASDTAMYYCARYGHGMYGGALDVWGQGTLVTVSS
VL: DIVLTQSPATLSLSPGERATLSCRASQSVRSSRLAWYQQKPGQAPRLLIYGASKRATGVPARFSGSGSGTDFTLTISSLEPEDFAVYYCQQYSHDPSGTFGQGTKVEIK
B3: MOR06669 IgG (antibody, V domains shown)
VH: QVQLVQSGAEVKKPGESLKISCKGSGYSFTNYWIGWVRQMPGKGLEWMGIIWPIDSFTQYSPSFQGQVTISADKSISTAYLQWSSLKASDTAMYYCARYGHGMYGGALDVWGQGTLVTVSS
VL: DIVLTQSPATLSLSPGERATLSCRASQSVRSSRLAWYQQKPGQAPRLLIYGASKRATGVPARFSGSGSGTDFTLTISSLEPEDFATYYCQQYYDFPPTFGQGTKVEIK
B4: MOR06642 IgG (antibody, V domains shown)
VH: QVQLVQSGAEVKKPGESLKISCKGSGYSFTNYWIGWVRQMPGKGLEWMGVIMPSDSYTRYSPSFQGQVTISADKSISTAYLQWSSLKASDTAMYYCARYGHGMYGGALDVWGQGTLVTVSS
VL: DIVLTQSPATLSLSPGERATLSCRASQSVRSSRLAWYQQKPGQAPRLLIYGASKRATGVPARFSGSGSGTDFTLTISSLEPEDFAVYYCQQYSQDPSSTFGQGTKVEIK
B5: MOR07111 IgG (antibody, V domains shown)
VH: QVQLVQSGAEVKKPGESLKISCKGSGYSFTNYWIGWVRQMPGKGLEWMGVIMPSDSYTRYSPSFQGQVTISADKSISTAYLQWSSLKASDTAMYYCARYGHGMYGGALDVWGQGTLVTVSS
VL: DIVLTQSPATLSLSPGERATLSCRASQSVRSSRLAWYQQKPGQAPRLLIYGASKRATGVPARFSGSGSGTDFTLTISSLEPEDFAVYYCQQFYSKPITFGQGTKVEIK
B6: MOR06643 IgG (antibody, V domains shown)
VH: QVQLVESGGGLVQPGGSLRLSCAASGFTFSDYAMSWVRQAPGKGLEWVSAIMYDSSSTFYADSVKGRFTISRDNSKNTLYLQMNSLRAEDTAVYYCARINYIYKGVHFDYWGQGTLVTVSS
VL: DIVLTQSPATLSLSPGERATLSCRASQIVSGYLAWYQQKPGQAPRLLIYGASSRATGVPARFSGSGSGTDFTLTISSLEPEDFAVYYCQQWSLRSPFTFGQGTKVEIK
B7: MOR06638 IgG (antibody, V domains shown)
VH: QVQLVQSGAEVKKPGASVKVSCKASGYTFTGNYINWVRQAPGQGLEWMGIINPHGGDTKYAQKFQGRVTMTRDTSISTAYMELSSLRSEDTAVYYCARWHHGTWIFDYWGQGTLVTVSS
VL: DIVLTQPPSVSGAPGQRVTISCSGSSSNIGSNYVSWYQQLPGTAPKLLIYNDNQRPSGVPDRFSGSKSGTSASLAITGLQSEDEADYYCSSWDRADGSYVFGGGTKLTVL

Target: human mesothelin (human, UniProt Q13421)
Sequence (Q13421 other isoform, or with tags, fused parts or gaps): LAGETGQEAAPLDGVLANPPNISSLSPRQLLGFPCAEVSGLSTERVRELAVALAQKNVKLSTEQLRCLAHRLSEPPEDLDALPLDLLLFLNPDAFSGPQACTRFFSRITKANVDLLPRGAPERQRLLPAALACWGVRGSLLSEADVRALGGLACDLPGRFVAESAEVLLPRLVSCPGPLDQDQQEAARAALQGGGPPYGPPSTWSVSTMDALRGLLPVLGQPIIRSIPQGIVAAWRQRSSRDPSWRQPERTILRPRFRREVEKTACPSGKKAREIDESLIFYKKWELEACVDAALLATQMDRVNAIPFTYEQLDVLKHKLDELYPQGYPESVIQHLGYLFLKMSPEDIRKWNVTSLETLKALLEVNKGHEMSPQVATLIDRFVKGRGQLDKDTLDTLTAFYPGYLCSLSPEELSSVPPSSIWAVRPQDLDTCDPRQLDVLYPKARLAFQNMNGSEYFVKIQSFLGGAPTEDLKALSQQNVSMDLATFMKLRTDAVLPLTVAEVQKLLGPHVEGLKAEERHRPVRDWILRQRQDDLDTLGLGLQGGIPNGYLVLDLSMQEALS
Experiment: FACS, OVCAR-3 cells

Row | Binder | EC50 [nM]
1 | B1 | 0.96
2 | B2 | 1.06
3 | B3 | 1.4
4 | B4 | 0.54
5 | B5 | 1.35
6 | B6 | 1.86
7 | B7 | 4.19
